In PMC6934829, “Multi-Factor Regulation of the Master Modulator LeuO for the Cyclic-(Phe-Pro) Signaling Pathway in Vibrio vulnificus” (Scientific Reports, 2019) one finds Kd and stoichiometry N data, which are given here for two molecules.

Assay [1] addresses T1, ToxR-C (C-terminal periplasmic domain of ToxR) (Vibrio vulnificus, UniProt Q9RP86).
T1 construct: C-terminal His-tag (pET21a), expressed in E. coli BL21(DE3)
In words: isothermal titration calorimetry. In kind it is binding. A general note: ITC needs no label: the signal is the heat of the interaction.

Assay [2] deals with C-terminal periplasmic domain of ToxR (ToxR-C) (Vibrio vulnificus). The assay is described as follows: ITC; 0.2 mM ToxR-C in the cell, 10 mM cFP or linear FP in the syringe, 2 ul injections at 2 min intervals, 25 °C, 20 mM Na2HPO4 pH 7.8, 1 mM EDTA; simple binding model.

What is called Kd is the equilibrium constant for the complex coming apart. As for `O=C1N[C@@H](Cc2ccccc2)C(=O)N2CCC[C@@H]12` [cFP], binding in assay [1] was put at a Kd of 42 µM.

A word on the stoichiometry N: it is a count of units in the complex or per binding partner. In assay [2], “cyclic-L-phenylalanine-L-proline (cFP) (peptide)” had a Kd of 42 µM and a stoichiometry N of 1.
